{
  "source": "patent US7648964B2",
  "about": "“Use of lacritin in promoting ocular cell survival” (University of Virginia Patent Foundation, priority 2004, dated 2010)",
  "key": {"[1]": {"test_system": "rat lacrimal acinar cells", "experiment": "Secretion by freshly isolated rat lacrimal acinar cells (peroxidase assay)", "type": "cell-based", "description": "Freshly isolated rat lacrimal acinar cells, and HSG (human salivary gland) ductal and HCE (human corneal epithelial) cell lines were used to study lacritin function. For secretion studies, rat acinar cells were plated serum-free overnight on wells co-coated with 0.05 μM laminin 1 (to ensure adhesion) and 0 to 20 μM lacritin, or alternatively with laminin-1 (0.05 μM) and treated the next day with serum-free medium containing 0 to 162 ng/ml of soluble lacritin for four hours. Unstimulated and stimulated (carbachol 10^−4 M/VIP 10^−8 M) secretions were then collected, assessed (peroxidase assay) and normalized to μg cellular DNA. To study tyrosine phosphorylation, overnight serum-free cultures of both rat lacrimal acinar and HSG cells were washed and treated with 10 ng/ml of soluble lacritin for 0.5, 2.5, 10, and 30 minutes. […] Using an inverted Zeiss 510 LSM for visualization, 50 second baseline images were first recorded. While the laser was running, lacritin was added (final concentration 4 and 40 ng/ml) and the response continually monitored every 786 msec for a minimum of 200 sec.\nLacritin function of three types of epithelial cells was assessed in serum-free cultures of: 1) lacrimal acinar; 2) salivary ductal; and 3) corneal epithelial cells using secretion (acinar), proliferation (ductal), tyrosine phosphorylation (acinar, ductal) and calcium signaling (corneal epithelial) assays. […]"}, "[2]": {"test_system": "human epidermal (A431) cells", "experiment": "3H-thymidine uptake mitogenesis assay", "type": "cell-based"}, "[3]": {"test_system": "human glioma (U-1242-MG) cells", "experiment": "3H-thymidine uptake mitogenesis assay", "type": "cell-based", "conditions": "even at higher doses"}, "[4]": {"test_system": "human glioma (U-251-MG) cells", "experiment": "3H-thymidine uptake mitogenesis assay", "type": "cell-based", "conditions": "even at higher doses"}, "[5]": {"test_system": "mouse fibroblast (NIH/3T3) cells", "experiment": "3H-thymidine uptake mitogenesis assay", "type": "cell-based"}, "HSG cells": {"test_system": "HSG cells", "experiment": "FACS analysis of apoptosis (sub G0/G1) of HSG cells in nutrient depleted medium", "type": "cell-based, human", "description": "HSG cells were cultured for different times in alpha-MEM medium, with or without lacritin (0.4 nM), then fixed with ice-old 70% ethanol and stained with propidium iodide at saturating condition, and examined by FACS. FIG. 3A is a bar graph of the resulting data plotting the number of cells entering apoptosis (the sub G0/G1 population) vs. time. After 24 hrs, cells without lacritin show very large DNA fragmentation or apoptosis. FIGS. 3B and 3C are graphic representations of flow cytometry readings showing that significant DNA fragmentation occurs in the cells cultured in the absence of lacritin (a sub G0/G1 population is indicated as a left shoulder of the large peak of FIG. 3B) but not present in FIG. 3C).\nSubsequent flow cytometry (FACS) analysis was carried out to monitoring the time course of cell death and survival promotion function of lacritin. […] Lacritin protected cells from death in nutrient depleted medium (alpha MEM) up to 96 hours or longer. Cells cultured in the absence of lacritin undergo apoptosis starting at about 24 hours and over 50% cells are apoptotic after 48 hours of culture."}, "PLD": {"test_system": "PLD", "experiment": "Endogenous PLD activity in HSG cells", "type": "cell-based, human", "conditions": "bell-shaped activation curve", "description": "We measured endogenous PLD activity after lacritin addition and obtained a bell-shaped activation curve that was optimal at 10 nM lacritin, thus recapitulating the same dose dependency observed for mitogenesis, PKCα translocation and PKCα dephosphorylation. To determine whether PKCα was upstream of PLD in lacritin signaling, cells were transfected with D7 siRNA. […] Transiently hypophosphorylated perinuclear Golgi PKCα appears to have at least two roles. It complexes with PLCγ2 leading to IP3 generation and calcium mobilization. It also activates PLD1."}},
  "data": [
    {"molecule": "lacritin: recombinant human lacritin from E. coli; mature 119 residue fragment (SEQ ID NO:10) of native lacritin SEQ ID NO:4 (protein, listed as Homo sapiens) EDASSDSTGADPAQEAGTSKPNEEISGPAEPASPPETTTTAQETSAAAVQGTAKVTSSRQELNPLKSIVEKSILLTEQALAKAGKGMHGGVPGGKQFIENGSEFAQKLLKKFSLLKPWA", "values": [
      {"measurement": "stimulated secretory pathways", "setting": "[1]; activated by agonists carbachol and VIP", "value": "no effect"},
      {"measurement": "unstimulated secretion", "setting": "[1]; coated and soluble lacritin, serum-free", "value": "enhanced unstimulated secretion in a dose-dependent manner"},
      {"measurement": "mitogenesis", "setting": "[2]", "value": "not mitogenic"},
      {"measurement": "mitogenesis", "setting": "[3]", "value": "not mitogenic"},
      {"measurement": "mitogenesis", "setting": "[4]", "value": "not mitogenic"},
      {"measurement": "mitogenesis", "setting": "[5]", "value": "not mitogenic"},
      {"measurement": "DNA fragmentation", "setting": "HSG cells; lacritin 10 ng/ml, alpha MEM", "value": "no noticeable DNA fragmentation"},
      {"measurement": "duration of protection from death", "setting": "HSG cells; nutrient depleted medium (alpha MEM)", "value": "≥ 96", "unit": "h"},
      {"measurement": "concentration of optimal PLD activation", "setting": "PLD", "value": 10, "unit": "nM"}
    ]}
  ]
}
